Data on one substance can be found in paper PMC7382501.

This assay concerns the target FasRLVL triple mutant (Leu106, Val163 and Leu185 to phenylalanine) (Mycobacterium tuberculosis) (UniProt O05858). Description: SEC. In general terms: In gel filtration, larger molecules generally elute earlier.

The term stoichiometry N denotes a count of units in the complex or per binding partner. Regarding “FasRLVL triple mutant (Leu106, Val163 and Leu185 to phenylalanine) (from UniProt O05858 1-228) (natural protein)”, the percent eluting as a monomer is below 50%, the percent eluting as the wild-type protein (dimer) was above 50% and the stoichiometry N was found to be 2.
